This is an account of results in patent US20100048450A1, “Sumoylation Control Agent and Uses Thereof” (priority 2005, published 2010).

Residues, ends and D or L forms follow the SMILES beside them. *: point of attachment. Cbz = O=C(OCc1ccccc1)*

The test system of assay [1] is Hela cells. Briefly: HLS5-induced apoptosis in co-transfected Hela cells. Type of assay: cell-based, human. The settings on record: HLS5 alone or co-transfected with the named protein. An excerpt:
To examine the biological effects of Ubc9, PIAS1 and SUMO-1 on HLS5-induced apoptosis, COS cells and HeLa cells were co-transfected with these molecules and cell death monitored. […] However, the effects of SUMO-1 on cell death induced by HLS5 were less pronounced.

For assay [2], the system named is HLS-5. The assay can be described thus: Confocal microscopy of HLS-5 localisation in COS7 cells. Type of assay: cell-based. The source says: (A) Confocal microscopy of COS7 cells co-expressing Myc-tagged HLS-5 and GFP-SUMO-1. HLS-5 was detected with anti-Myc antibodies in conjunction with red secondary antibodies and SUMO-1 detected by green fluorescent. (B) Confocal microscopy of COS7 cells co-expressing Myc-tagged HLS-5 and GATA-1. GATA-1 was detected with an anti-GATA-1 antibody and HLS-5 was detected with anti-Myc antibodies in conjunction with red and green fluorescent secondary antibodies respectively. (C) Confocal microscopy of COS7 cells co-expressing myc-tagged HLS-5 in the presence of MG132. HLS-5 was detected with anti-Myc antibodies in conjunction with red fluorescent secondary antibodies
(§1) Also, COS7 cells co-expressing Myc-tagged HLS-5 or a mutant form of HLS-5 lacking its Ring finger (ΔN61) and HA-tagged SUMO1 were analysed in the presence or absence of MG132.
As HLS-5 is located principally within cytoplasmic granules, the effects of Ubc9, PIAS1, MG-132 and SUMO-1 on HLS-5 compartmentalization were investigated. […] However, when the SUMO-1 and HLS-5 were co-expressed, there was a remarkable increase in the amount of HLS5 appearing in the nucleus (FIG. 3A). Therefore SUMO1 promoted translocation of HLS-5 from cytoplasmic granules into the nucleus.

The test system of assay [3] is GATA-1. Briefly: GATA-1 transactivation luciferase reporter assay in COS cells. Type of assay: cell-based. The method, then:
(§2) (B and C) Lysates from COS7 cells transfected with Myc-tagged HLS-5 and/or GATA-1, and/or HA-tagged Sumo-1, and/or HA-tagged PIAS1 were immunoblotted (IB) with antibodies to GATA-1, HA or Myc D) COS7 cells were transfected as shown in the presence of pGL3-M1α firefly luciferase reporter construct and pRN-CMV renilla luciferase construct. Relative GATA-1 activity was determined by dividing firefly activity with renilla activity. Amount of DNA used was 200 ng per transfection (+) unless otherwise shown. Samples were performed in duplicate and shown is the mean±range. Data shown are representative of three independent experiments.
The effect of HLS-5 on sumoylated GATA-1 transactivation was then examined using the MIα promoter and luciferase reporter assays. […] These observations contrast with the inhibitory effects of GATA-1 sumoylation on transactivation reported by Collavin et al. (2004, supra). […] These observations are consistent with a modulatory role for HLS5 in sumoylation.
For orientation: A reporter such as luciferase makes a cellular process visible.

The target of assay [4] is T1, Ubc9 (Homo sapiens, UniProt P63279).
T1 construct: expressed in transfected cells; host or cells: yeast (two-hybrid)
T1 sequence (P63279 whole entry, species assumed): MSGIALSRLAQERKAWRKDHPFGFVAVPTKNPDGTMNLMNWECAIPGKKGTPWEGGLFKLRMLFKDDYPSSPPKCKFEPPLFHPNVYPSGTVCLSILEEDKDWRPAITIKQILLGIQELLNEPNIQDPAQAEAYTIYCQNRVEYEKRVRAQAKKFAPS
The assay can be described thus: Yeast two-hybrid binding of HLS-5 to Ubc9. The settings on record: yeast 2 hybrid, β-galactosidase filter assay. As to the method: (§3) (A) Full length Ubc9 was examined for binding to various HLS-5 constructs as shown using yeast two-hybrid. Binding was measured by filter assay for β-galactosidase activity. (B) BRET assay of COS7 cells expressing HLS-5. Rluc fusion protein with increasing amounts of GFP-Ubc9 fusion protein. Results presented as BRET ratio. (C) PIAS1 (aa 303-651) fragment isolated from the Y2H screen was assessed for binding to various HLS-5 constructs as shown using yeast two-hybrid. Binding was measured by filter assay for β-galactosidase activity. (D) Lysates from COS7 cells transfected with Myc-tagged HLS-5, HA-tagged PIAS1 and/or GATA-1 were immunoprecipitated (IP) with anti-Myc antibodies and immunoblotted (IB) with antibodies to HA or Myc in the presence and/or absence of NEM/IAA.
A yeast two-hybrid screen for HLS-5 interacting partners identified two proteins involved in the sumoylation pathway viz Ubc9 and PIAS1.
The interaction between HLS-5 and Ubc9 was characterized further by yeast 2 hybrid assays to define important binding domains. […] To confirm that HLS-5 and Ubc9 were genuine binding partners, the interaction was investigated in mammalian cells using bioluminescence resonance energy transfer (BRET), which is able to detect protein:protein interactions in living cells (Xu et al., 1999, Proc Natl Acad Sci USA, 96, 151-156). […]

Assay [5] deals with SUMOylated substrate. Briefly: SUMOylated substrate co-immunoprecipitating with Myc-tagged HLS-5 in COS7 cells. Type of assay: cell-based. The settings on record: HA-tagged SUMO1, in the presence of MG132, FIG. 6A. As to the method: (A) COS7 cells co-expressing Myc-tagged HLS-5 or a mutant form of HLS5 lacking its Ring finger (ΔN61) and HA-tagged SUMO1 in the presence or absence of MG132. SUMOylated substrate was detected with an anti-HA antibody and HLS-5 was immunoprecipitated by using a Myc antibodies respectively.
as §1

For assay [6], the system named is PIAS1. Briefly: Immunoblot of PIAS1 levels in COS cells co-expressing HLS-5 or deletion mutants. The settings on record: co-expression with HA-tagged PIAS1, FIG. 5B/5C. Type of assay: cell-based. The source says: (§4) (A) Hela cells co-expressing Myc-tagged HLS-5 and HA-tagged PIAS1. PIAS1 was detected with an anti-HA antibody and HLS-5 was detected as a GFP fusion protein in conjunction with red and green fluorescent secondary antibodies respectively. (B) COS7 cells transfected with GFP-tagged HLS-5 and/or HA-tagged PIAS1, UBC9 or SUMO-1 and immunoblotted (IB) with antibodies to HA. (C) Lysates from COS7 cells transfected with Different Myc-tagged HLS-5 deletion constructs and HA-tagged-PIAS1, and GFP-tagged Histone 2B as a transfection/Loading control. Samples were immunoblotted (IB) with antibodies to GFP, HA and Myc.
(§5) To investigate whether HLS-5 was a functional E3 ligase, SUMO-1 and HLS-5 were co-expressed in COS cells and total protein sumoylation ascertained by immunoblotting. […] We then investigated which domain of HLS-5 was involved in the elimination of PIAS1 protein expression. […] Thus, HLS-5 altered global protein SUMOylation and reduced intracellular content of SUMO-1, PIAS1 and Ubc9, key components of the SUMOylation machinery and this action is accomplished partly through its B Box & Coiled Coil domain.

Assay [7] deals with T2, PIAS1 (Homo sapiens, UniProt O75925).
T2 construct: HA; expressed in transfected cells; host or cells: COS7
T2 sequence (O75925 whole entry, species assumed): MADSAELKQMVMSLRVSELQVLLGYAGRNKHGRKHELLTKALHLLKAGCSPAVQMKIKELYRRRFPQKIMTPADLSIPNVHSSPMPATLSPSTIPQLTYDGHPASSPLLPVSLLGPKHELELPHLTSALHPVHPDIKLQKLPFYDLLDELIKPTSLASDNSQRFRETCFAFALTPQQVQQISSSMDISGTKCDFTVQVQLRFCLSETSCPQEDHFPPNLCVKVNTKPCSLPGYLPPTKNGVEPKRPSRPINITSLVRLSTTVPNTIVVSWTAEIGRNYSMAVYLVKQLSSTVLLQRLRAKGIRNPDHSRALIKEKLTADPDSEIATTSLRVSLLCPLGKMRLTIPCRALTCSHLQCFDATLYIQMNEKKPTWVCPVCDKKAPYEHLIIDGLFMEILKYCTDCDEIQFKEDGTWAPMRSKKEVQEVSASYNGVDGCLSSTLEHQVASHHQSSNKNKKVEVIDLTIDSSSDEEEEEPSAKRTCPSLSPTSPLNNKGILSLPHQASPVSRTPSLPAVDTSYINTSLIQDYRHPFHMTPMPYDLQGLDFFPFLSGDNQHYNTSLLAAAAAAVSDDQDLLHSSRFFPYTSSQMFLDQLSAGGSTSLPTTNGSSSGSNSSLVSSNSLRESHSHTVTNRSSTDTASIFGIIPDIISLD
Briefly: Co-immunoprecipitation of HLS-5 and PIAS1 in COS cells. The settings on record: when GATA-1 was present. Type of assay: binding. The method, then: as §3
As PIAS1 mainly is a nuclear protein (Tan et al., 2000, Mol Endocrinol, 14, 14-26), and HLS-5 is primarily cytoplasmic, the failure of these molecules to interact may be caused by subcellular separation. Since GATA-1 promotes nuclear re-localization of HLS-5 (see below and FIG. 3b) it was included in co-transfections with HLS5 and PIAS1. […] It is postulated that the redistribution of HLS-5 induced by GATA-1 enabled nuclear access and binding to PIAS1 or that GATA-1, HLS-5 and PIAS1 form a protein complex required for this interaction.

Assay [8] concerns the target T1, Ubc9. Briefly: BRET assay of HLS-5 and Ubc9 in COS cells. Type of assay: binding. The settings on record: HLS-5 and Ubc9 constructs co-expressed in COS cells. As to the method:
as §3
The interaction between HLS-5 and Ubc9 was characterized further by yeast 2 hybrid assays to define important binding domains. […] To confirm that HLS-5 and Ubc9 were genuine binding partners, the interaction was investigated in mammalian cells using bioluminescence resonance energy transfer (BRET), which is able to detect protein:protein interactions in living cells (Xu et al., 1999, Proc Natl Acad Sci USA, 96, 151-156). […] However, this interaction may well be transient as the two molecules could not be co-immunoprecipitate (data not shown). […]
On the technique in general: Bioluminescence resonance energy transfer reports proximity on the nanometre scale.

The subject of assay [9] is SUMO-1. The assay can be described thus: Immunoblot of SUMO-1 levels in COS cells co-expressing HLS-5. Type of assay: cell-based. The settings on record: SUMO-1 and HLS-5 co-expressed, FIG. 5B.
Source text: as §4, §5
A general note: Immunoblotting shows a protein as a band on a membrane.

The target of assay [10] is T3, SUMO-1 (Homo sapiens, UniProt P63165).
T3 construct: expressed in transfected cells; host or cells: yeast (two-hybrid)
T3 sequence (P63165 whole entry, species assumed): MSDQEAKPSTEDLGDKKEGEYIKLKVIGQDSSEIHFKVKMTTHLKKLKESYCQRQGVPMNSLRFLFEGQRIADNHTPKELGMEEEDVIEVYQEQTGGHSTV
The assay can be described thus: Yeast two-hybrid binding of HLS-5 to SUMO-1. The method, then: (§6) (A) Potential sumoylation sites of HLS-5 are shown. (B) Binding of Hls-5 deletion mutants to full length Sumo-1 was examined in the yeast system by filter assay for β-galactosidase activity. (C) Interaction between Hls-5 and Sumo-1, 2 or 3 was examined using yeast two-hybrid. Binding was assessed using a liquid assay to measure β-galactosidase activity. Samples were measured in triplicate and shown is the mean±standard deviation. (D) Lysates from COS7 cells transfected with Myc-tagged Hls-5, and/or HA-tagged Sumo-1, HA-tagged UBC9, HA-tagged PIAS1 were immunoblotted (IB) with antibodies to Sumo-1 or Myc.
(§7) Since HLS-5 was able to interact with Ubc9 and PIAS1, the possibility that HLS-5 is sumoylated was then examined. Like other RBCC/TRIM family members such as PML (Duprez et al., 1999, J Cell Sci., 112, 381-393; Kamitani et al., 1998, J. Biol. Chem., 273, 26675-26682), HLS-5 has several ΨKxE/D consensus sumoylation sites (FIG. 2a). To determine if HLS-5 was able to bind SUMO-1, the yeast two-hybrid system was employed using several HLS-5 deletion mutants.

Assay [11] relates to Ubc9. The assay can be described thus: Immunoblot of Ubc9 levels in COS cells co-expressing HLS-5. Type of assay: cell-based. The settings on record: co-expression, FIG. 5B.
Source text: as §4, §5

For assay [12], the system named is GATA-1. Briefly: Co-immunoprecipitation of HLS-5 and GATA-1 in COS cells. Type of assay: binding. The settings on record: with isopeptidase inhibitors NEM and IAA. The method, then: as §2
The interaction between GATA-1 and HLS5 was then examined biochemically by transfecting COS cells with myc-tagged HLS-5 and GATA-1, followed by immunoprecipitation and immunoblotting.

Assay [13] relates to SUMO-2. Briefly: Yeast two-hybrid binding of HLS-5 to SUMO-2. The settings on record: liquid β-galactosidase assay. The method, then: as §6, §7
Assay [14] relates to SUMO-3. Briefly: Yeast two-hybrid binding of HLS-5 to SUMO-3. The settings on record: liquid β-galactosidase assay. The method, then:
as §6, §7

Assay [15] concerns global SUMOylation. Briefly: Total protein sumoylation by immunoblotting in COS cells co-expressing SUMO-1 and HLS-5. Type of assay: cell-based. The settings on record: SUMO-1 and HLS-5 co-expressed.
Source text: as §4, §5

Turning to “Ubc9: E2 enzyme in the SUMO-1 conjugation pathway”, the “apoptosis / cell death caused by HLS5” value in [1] was 12 % of cells.
Turning to `CC(C)C[C@@H](C=O)NC(=O)[C@H](CC(C)C)NC(=O)[C@H](CC(C)C)NC(=O)OCc1ccccc1` [MG132] (Cbz-Leu-Leu-Leu-aldehyde), the “translocation of HLS-5 from cytoplasmic granules into the nucleus” value in [2] (COS7 cells) is “translocation was also observed”. For the same molecule, in [2] (COS7 cells expressing myc-tagged HLS-5, FIG. 3C), the “effect on HLS-5 accumulation” value is “accumulation of HLS-5”.

B1: HLS-5: member of the RING finger B-box Coiled-coil (RBCC) protein family; tested by expression from transfected constructs (protein, listed as Homo sapiens)
chain: MERSPDVSPGPSRSFKEELLCAVCYDPFRDAVTLRCGHNFCRGCVSRCWEVQVSPTCPVCKDRASPADLRTNHTLNNLVEKLLREEAEGARWTSYRFSRVCRLHRGQLSLFCLEDKELLCCSCQADPRHQGHRVQPVKDTAHDFRAKCRNMEHALREKAKAFWAMRRSYEAIAKHNQVEAAWLEGRIRQEFDKLREFLRVEEQAILDAMAEETRQKQLLADEKMKQLTEETEVLAHEIERLQMEMKEDDVSFLMKHKSRKRRLFCTMEPEPVQPGMLIDVCKYLGSLQYRVWKKMLASVESVPFSFDPNTAAGWLSVSDDLTSVTNHGYRVQVENPERFSSAPCLLGSRVFSQGSHAWEVALGGLQSWRVGVVRVRQDSGAEGHSHSCYHDTRSGFWYVCRTQGVEGDHCVTSDPATSPLVLAIPRRLRVELECEEGELSFYDAERHCHLYTFHARFGEVRPYFYLGGARGAGPPEPLRICPLHISVKEELDG
As for B1, the “apoptosis / cell death caused by HLS5” value in [1] is 60 % of cells. For the same molecule, in assay [3] (co-expression with SUMO-1), the GATA-1 activity result was “decreased GATA-1 activity”. The GATA-1 transactivation entry in [3] (in the presence of both SUMO-1 and PIAS1) is recorded as “suppressed GATA-1 transactivation”. Moreover, the “association with Ubc9” value in assay [4] is “able to associate with Ubc9”. Further, the “SUMOylated substrate detected with anti-HA antibody” value in [5] is on record as “SUMOylated substrate detected”. Besides, in assay [6], the PIAS1 protein level entry is on record as “almost complete elimination of PIAS1”. Besides, the “co-immunoprecipitation with PIAS1” value in [7] was “could co-immunoprecipitate”. In assay [8], the BRET ratio result is recorded as “positive BRET ratio”. Also, in [9], the “reduction of the levels of SUMO-1” value was more than 95%. For the same molecule, the “interaction with SUMO-1” value in assay [10] was “could interact with SUMO-1”. Further, the Ubc9 protein level result in assay [11] is “reduced the levels of Ubc9”. Besides, the “co-immunoprecipitation with GATA-1” value in assay [12] is on record as “GATA-1 was detected in HLS-5 immunoprecipitates”. Also, the “binding to SUMO-2” value in [13] is recorded as “neither SUMO-2, nor SUMO-3 bound”. The “binding to SUMO-3” value in [14] is listed as “neither SUMO-2, nor SUMO-3 bound”. In addition, in [15], the overall sumoylation entry is on record as “reduced”.
